Data set [1] concerns the target M.SssI DNA cytosine-C5 methyltransferase (Spiroplasma sp.?) (UniProt P15840). The following applies: formaldehyde; GCGC site resistant to R.Hin6I.
Data set [2] concerns the target T1, M.HpaII DNA cytosine-C5 methyltransferase (UniProt P15446).
T1 sequence: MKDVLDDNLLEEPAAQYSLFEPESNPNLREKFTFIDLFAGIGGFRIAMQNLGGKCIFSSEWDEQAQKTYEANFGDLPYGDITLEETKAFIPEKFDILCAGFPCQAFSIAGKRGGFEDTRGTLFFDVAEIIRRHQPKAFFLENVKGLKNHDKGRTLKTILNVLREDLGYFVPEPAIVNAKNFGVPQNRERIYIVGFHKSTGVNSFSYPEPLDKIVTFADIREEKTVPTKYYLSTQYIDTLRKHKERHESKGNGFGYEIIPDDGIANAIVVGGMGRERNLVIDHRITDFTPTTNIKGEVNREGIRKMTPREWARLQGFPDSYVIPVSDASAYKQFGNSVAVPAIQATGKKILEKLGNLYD
The following applies: formaldehyde; CCGG sites resistant to R.HpaII.

The record followed here is patent publication US20120094280.

Sequence of M.SssI DNA cytosine-C5 methyltransferase (Spiroplasma sp.?) (P15840 whole entry): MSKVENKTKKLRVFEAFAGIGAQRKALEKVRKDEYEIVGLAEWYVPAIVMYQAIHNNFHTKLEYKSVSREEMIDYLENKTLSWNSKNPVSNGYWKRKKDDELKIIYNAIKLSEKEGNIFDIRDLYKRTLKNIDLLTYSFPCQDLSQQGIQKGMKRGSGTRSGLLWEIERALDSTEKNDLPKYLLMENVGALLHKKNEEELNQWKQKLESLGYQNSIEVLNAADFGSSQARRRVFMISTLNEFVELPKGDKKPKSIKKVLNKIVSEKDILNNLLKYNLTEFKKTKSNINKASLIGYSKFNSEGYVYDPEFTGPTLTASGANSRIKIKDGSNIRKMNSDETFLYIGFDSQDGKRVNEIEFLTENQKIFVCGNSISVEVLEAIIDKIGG

Regarding pUC-618 PCR fragment (618 bp), the activity in data set [1] and in data set [2] was 70% throughout.
